This note sets out measurements from IntAct's records for PubMed 20581866.

The labels stand for the following.
B1: ATPase family AAA domain-containing protein 2 (Mus musculus), Q8CDM1 (parent)
chain: MSLLKMRRHAIHSSDSTSSSSSEDDCFERRTKRNRNRAINRCLPLNFRKDEIRGIYKDRMKIGASLADVDPMQLDTSVRFDSVGGLSSHIAALKEMVVFPLLYPEVFEKFKIQPPRGCLFYGPPGTGKTLVARALANECSRGDKRVAFFMRKGADCLSKWVGESERQLRLLFDQAYQMRPAIIFFDEIDGLAPVRSSRQDQIHSSIVSTLLALMDGLDSRGEIVVIGATNRLDSIDPALRRPGRFDREFLFSLPDKNARKEILKIHTRDWNPKPVDMFLEELAEHCVGYCGADIKSICAEAALCALRRRYPQIYTTSEKLQLDLSSITISAKDFEAALQKIRPASQRAVTSPGQALSAIVKPLLQNTVHRILDALQKVFPHVEVGTNKSLNSDVSCPFLESDLAYSDDDTPSVYENGLSQKENLNFLHLNRNACYQPMSFRPRLLIVGEPGFGQSSHLAPAVIHALEKFTVYTLDIPVLFGISTTSPEEACSQMIREAKRTAPSIVYVPHIHLWWEIVGPTLKATFTTLLQTIPSFAPVLLLATSEKPYSALPEEVQELFTHDYGEIFNVQLPDKEERTKFFEDLILKQASKPPVSQKKAVLQALEVLPVAPPPEPRPLTAEEVKRLEEQEEDTFRELRIFLRNVTHRLAIDKRFRVFTKPVDPDEVPDYVTVIKQPMDLSSVISKIDLHKYLTVKDYLKDIDLICSNALEYNPDRDPGDRLIRHRACALRDTAYAIIKEELDEDFEQLCEEIQESRKKRGCSSSKYAPSYYHVMPKQNSPPVGDKKPDQEQNEKLKVPCTPVACSTPAQLKRKFHKKSKWHVGTKIKRRKISQAKDNSLNAMNSSSRSDTEDSQHTHAEHTEPGNTDESSVEESDKQNRLESNIDLKNNSSSSNIENELEEPKETTEGTELRKDRIVCRGDASASQVTDIPEDSESKEMDFLRMTLARGSQVEQQELISMEQALAILSQPTPSLVLDHKQLTNILKTVVKKSQKYNIFQLENLYAVISQCIYEHRRDYDKTALVQKMEQAVENFNCSRS

In the test the parent is B1. As to conditions: with h4_mouse H4c11, P62806.
For the variant Y670F, the “effect of a mutation on the interaction” value is given as “disrupting interaction”.
For the variant K128S, the “effect of a mutation on the interaction” value is “disrupting interaction”.
